What was measured:
[1] = biological target: T1, human CD3e/g antigen (ACRO, catalog number CDG-H52W5) (human, UniProt P07766 23-126; P09693 23-116); test: SPR (Biacore 8K), antibody captured via anti-human Fc
T1 construct: Bought reagent used as the Biacore analyte; also called hCD3e/g
Summary of the method: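 Anti-human IgG (Fc) antibody amine-coupled on CM5 chip captures CD3 antibodies; antigen injected at a concentration series. Association and dissociation curves fitted kinetically to give equilibrium dissociation constant.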

[2] = biological target: T2, CD3 on Jurkat cells (human); test: FACS on Jurkat cells, Alexa 488 secondary antibody, MFI [d]
T2 construct: native, on the surface of Jurkat cells; The sheets print only 'Jurkat'; also called human CD3; TCR/CD3 complex on the human T cell line Jurkat
Experimental: Jurkat cells were amplificatorily cultured to 3×10⁶/ml in a T-175 cell culture flask, the culture medium was removed by centrifugation, and the cells were washed twice with PBS buffer (purchased from Invitrogen). After cell counting, the cells were diluted to 2×10⁶ cells/ml with PBS buffer, added with 1% BSA blocking solution, where the percentage was a mass percentage, incubated on ice for 30 minutes, and then washed twice with PBS buffer by centrifugation. The collected cells were suspended to 2×10⁶ cells/mL with FACS buffer (PBS+1% BSA, where the percentage was a mass percentage), and added to a 96-well FACS reaction plate at 100 μl per well, and samples of the purified CD3 antibodies obtained in Example 4 to be tested were added at 100 μl per well, and incubated at 4° C. for 2 hours. The plate was washed twice with FACS buffer by centrifugation, added with 100 μl per well of fluorescent (Alexa 488) labeled secondary antibody (purchased from Jackson), and incubated at 4° C. for 1 hour. After washing 3 times by centrifugation with FACS buffer, the cells were suspended with 100 μl of FACS buffer, and detected and analyzed using BD FACS LSRFortessa (purchased from BD). The results are shown in FIG. 5, where the IgG control is human IgG1 (hIgG).

Kd [1]: 21.2 nM | koff [1]: 0.00372 s⁻¹ | kon [1]: 176000 M⁻¹ s⁻¹ | EC50 (read off the curve) [2]: ~3 nM
B1: CAb008 (antibody, V domains shown)
VH: QVQLQQSGAELARPGASVKMSCKTSGYTFTDYTVNWVKQRPGQGLEWIGYINPFNSYTKYNQKFKDKATLTADKSSSTAYMQLSSLTSEDSAVYFCANSVSTYWGQGTTLTVSS
VL: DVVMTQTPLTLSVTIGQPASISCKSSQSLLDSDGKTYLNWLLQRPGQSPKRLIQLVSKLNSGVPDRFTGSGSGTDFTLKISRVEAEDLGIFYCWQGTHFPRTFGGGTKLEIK
notes: Chimeric: mouse variable regions linked to human light and heavy constant regions; constant regions not specified

Reference: patent US20250346668A1 (GENOR BIOPHARMA, published 2025)
